Results: paper PMC2192141

B1: MIS (mutant D box) (dsDNA)
DNA 1: ATCTCAAAATATGGGTCTGATTGGCCA
DNA 2: TGGCCAATCAGACCCATATTTTGAGAT
B2: MOCT (mutant octamer) (dsDNA)
DNA 1: AGAGTAATTGATGGGCATTTTAATGG
DNA 2: CCATTAAAATGCCCATCAATTACTCT

Target: HMG I/Y (recombinant HMG I) (UniProt P17096 1-107)
Assay: EMSA

HMG I/Y (recombinant HMG I), sequence (P17096 whole entry): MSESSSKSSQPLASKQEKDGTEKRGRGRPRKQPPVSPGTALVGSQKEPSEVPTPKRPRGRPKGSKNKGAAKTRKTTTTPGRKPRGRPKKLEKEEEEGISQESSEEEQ

Binder | binding result
B1 | no binding
B2 | no binding
